In the supplement of paper PMC10567573:

B1: RHOBTB3 (parent)
chain: DSCCPAGIFQAMCLLICAEMYQVS
B2: ZNF449 (parent)
chain: FQEYDTDCEVFRQRFRQFQYREAA

Variants of: B1
Assay: protein stability index of a GFP-peptide fusion (GPS, HEK-293T) (PSI 1-6); higher = more stable
Conditions: c terminus: a fixed tail appended
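Further: lentivirally expressed fusions sorted by FACS into six bins by GFP to DsRed ratio, PSI derived from sequencing read proportions per bin multiplied by bin number.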

Variant | protein stability index
DSCCPAGIFQAMCLLHCAEMYQVS [I16H] | 2.82

Variants of: B2
Assay: as above
Conditions: c terminus: a fixed tail appended

Variant | protein stability index
AQEYDTDCEVFRQRFRQFQYREAA [F1A] | 2.85
CQEYDTDCEVFRQRFRQFQYREAA [F1C] | 2.6
DQEYDTDCEVFRQRFRQFQYREAA [F1D] | 3.01
EQEYDTDCEVFRQRFRQFQYREAA [F1E] | 3.25
GQEYDTDCEVFRQRFRQFQYREAA [F1G] | 3.31
HQEYDTDCEVFRQRFRQFQYREAA [F1H] | 3.24
IQEYDTDCEVFRQRFRQFQYREAA [F1I] | 2.81
LQEYDTDCEVFRQRFRQFQYREAA [F1L] | 3.19
MQEYDTDCEVFRQRFRQFQYREAA [F1M] | 3.03
NQEYDTDCEVFRQRFRQFQYREAA [F1N] | 3.23
PQEYDTDCEVFRQRFRQFQYREAA [F1P] | 3.42
QQEYDTDCEVFRQRFRQFQYREAA [F1Q] | 2.79
RQEYDTDCEVFRQRFRQFQYREAA [F1R] | 2.43
SQEYDTDCEVFRQRFRQFQYREAA [F1S] | 2.85
TQEYDTDCEVFRQRFRQFQYREAA [F1T] | 3.22
WQEYDTDCEVFRQRFRQFQYREAA [F1W] | 2.82
YQEYDTDCEVFRQRFRQFQYREAA [F1Y] | 2.25
FAEYDTDCEVFRQRFRQFQYREAA [Q2A] | 2.9
FCEYDTDCEVFRQRFRQFQYREAA [Q2C] | 2.26
FDEYDTDCEVFRQRFRQFQYREAA [Q2D] | 3.19
FEEYDTDCEVFRQRFRQFQYREAA [Q2E] | 2.73
FFEYDTDCEVFRQRFRQFQYREAA [Q2F] | 2.48
FGEYDTDCEVFRQRFRQFQYREAA [Q2G] | 2.59
FHEYDTDCEVFRQRFRQFQYREAA [Q2H] | 1.78

Variant | protein stability index
FIEYDTDCEVFRQRFRQFQYREAA [Q2I] | 1.97
FKEYDTDCEVFRQRFRQFQYREAA [Q2K] | 2.96
FLEYDTDCEVFRQRFRQFQYREAA [Q2L] | 2.33
FMEYDTDCEVFRQRFRQFQYREAA [Q2M] | 2.61
FNEYDTDCEVFRQRFRQFQYREAA [Q2N] | 2.93
FPEYDTDCEVFRQRFRQFQYREAA [Q2P] | 2.72
FREYDTDCEVFRQRFRQFQYREAA [Q2R] | 2.09
FSEYDTDCEVFRQRFRQFQYREAA [Q2S] | 3.32
FTEYDTDCEVFRQRFRQFQYREAA [Q2T] | 2.69
FVEYDTDCEVFRQRFRQFQYREAA [Q2V] | 1.68
FWEYDTDCEVFRQRFRQFQYREAA [Q2W] | 2.67
FYEYDTDCEVFRQRFRQFQYREAA [Q2Y] | 2.5
FQAYDTDCEVFRQRFRQFQYREAA [E3A] | 2.08
FQCYDTDCEVFRQRFRQFQYREAA [E3C] | 1.76
FQDYDTDCEVFRQRFRQFQYREAA [E3D] | 2.24
FQFYDTDCEVFRQRFRQFQYREAA [E3F] | 2.35
FQGYDTDCEVFRQRFRQFQYREAA [E3G] | 1.41
FQHYDTDCEVFRQRFRQFQYREAA [E3H] | 2.11
FQIYDTDCEVFRQRFRQFQYREAA [E3I] | 1.91
FQKYDTDCEVFRQRFRQFQYREAA [E3K] | 2.03
FQLYDTDCEVFRQRFRQFQYREAA [E3L] | 1.99
FQMYDTDCEVFRQRFRQFQYREAA [E3M] | 1.85
FQNYDTDCEVFRQRFRQFQYREAA [E3N] | 1.68
FQPYDTDCEVFRQRFRQFQYREAA [E3P] | 1.56

Variant | protein stability index
FQQYDTDCEVFRQRFRQFQYREAA [E3Q] | 2.04
FQRYDTDCEVFRQRFRQFQYREAA [E3R] | 2.54
FQSYDTDCEVFRQRFRQFQYREAA [E3S] | 2.15
FQVYDTDCEVFRQRFRQFQYREAA [E3V] | 2.31
FQWYDTDCEVFRQRFRQFQYREAA [E3W] | 2.6
FQYYDTDCEVFRQRFRQFQYREAA [E3Y] | 1.68
FQEADTDCEVFRQRFRQFQYREAA [Y4A] | 2.12
FQECDTDCEVFRQRFRQFQYREAA [Y4C] | 3.01
FQEDDTDCEVFRQRFRQFQYREAA [Y4D] | 3.03
FQEEDTDCEVFRQRFRQFQYREAA [Y4E] | 3.79
FQEFDTDCEVFRQRFRQFQYREAA [Y4F] | 2.5
FQEHDTDCEVFRQRFRQFQYREAA [Y4H] | 2.33
FQEIDTDCEVFRQRFRQFQYREAA [Y4I] | 2.42
FQEKDTDCEVFRQRFRQFQYREAA [Y4K] | 2.85
FQEMDTDCEVFRQRFRQFQYREAA [Y4M] | 2.25
FQENDTDCEVFRQRFRQFQYREAA [Y4N] | 2.33
FQEPDTDCEVFRQRFRQFQYREAA [Y4P] | 2.28
FQEQDTDCEVFRQRFRQFQYREAA [Y4Q] | 2.66
FQERDTDCEVFRQRFRQFQYREAA [Y4R] | 2.14
FQESDTDCEVFRQRFRQFQYREAA [Y4S] | 2.27
FQETDTDCEVFRQRFRQFQYREAA [Y4T] | 1.7
FQEVDTDCEVFRQRFRQFQYREAA [Y4V] | 2.41
FQEYATDCEVFRQRFRQFQYREAA [D5A] | 2.25
FQEYCTDCEVFRQRFRQFQYREAA [D5C] | 2.09

Variant | protein stability index
FQEYETDCEVFRQRFRQFQYREAA [D5E] | 2.45
FQEYFTDCEVFRQRFRQFQYREAA [D5F] | 1.65
FQEYGTDCEVFRQRFRQFQYREAA [D5G] | 1.78
FQEYHTDCEVFRQRFRQFQYREAA [D5H] | 1.76
FQEYITDCEVFRQRFRQFQYREAA [D5I] | 1.42
FQEYKTDCEVFRQRFRQFQYREAA [D5K] | 2.64
FQEYLTDCEVFRQRFRQFQYREAA [D5L] | 2.5
FQEYMTDCEVFRQRFRQFQYREAA [D5M] | 2.05
FQEYNTDCEVFRQRFRQFQYREAA [D5N] | 2.68
FQEYQTDCEVFRQRFRQFQYREAA [D5Q] | 1.57
FQEYRTDCEVFRQRFRQFQYREAA [D5R] | 1.79
FQEYSTDCEVFRQRFRQFQYREAA [D5S] | 2.28
FQEYTTDCEVFRQRFRQFQYREAA [D5T] | 1.35
FQEYVTDCEVFRQRFRQFQYREAA [D5V] | 1.23
FQEYWTDCEVFRQRFRQFQYREAA [D5W] | 1.29
FQEYYTDCEVFRQRFRQFQYREAA [D5Y] | 2.55
FQEYDADCEVFRQRFRQFQYREAA [T6A] | 2.58
FQEYDCDCEVFRQRFRQFQYREAA [T6C] | 1.94
FQEYDDDCEVFRQRFRQFQYREAA [T6D] | 2.62
FQEYDEDCEVFRQRFRQFQYREAA [T6E] | 2.17
FQEYDFDCEVFRQRFRQFQYREAA [T6F] | 2.22
